How the values were obtained:
[1] = biological target: T1, human PD-1/CD279 (Homo sapiens, UniProt Q15116); test: PD-1 binding ELISA assay (Example 5); conditions: biotinylated human PD-1
T1 construct: purchased Biolegend #789406
Experimental: (§1) The interaction of the unmodified antibodies and corresponding IL-18 immunocytokines with relevant immune cell associated antigen are measured by ELISA assay. For these studies, Corning high-binding half-area plates (Fisher Scientific, Reinach, Switzerland) are coated overnight at 4° C. with 25 μl of unmodified antibodies corresponding IL-18 immunocytokines at […] in PBS. […] Plate surfaces are blocked with 25 μl of PBS-0.02% Tween20-1% BSA at 37° C. during 1 h. […] ELISA signal is then measured at 450 nm on an ENSPIRE® plate reader from Perkin Elmer (Schwerzenbach, Switzerland).

[2] = biological target: T2, human PD-L1/B7-H1 (Homo sapiens, UniProt Q9NZQ7); test: PD-L1 binding ELISA assay (Example 5); conditions: biotinylated human PD-L1
T2 construct: purchased ACROBiosystems PD1-H82E5-25UG
T2 sequence (Q9NZQ7 19-290): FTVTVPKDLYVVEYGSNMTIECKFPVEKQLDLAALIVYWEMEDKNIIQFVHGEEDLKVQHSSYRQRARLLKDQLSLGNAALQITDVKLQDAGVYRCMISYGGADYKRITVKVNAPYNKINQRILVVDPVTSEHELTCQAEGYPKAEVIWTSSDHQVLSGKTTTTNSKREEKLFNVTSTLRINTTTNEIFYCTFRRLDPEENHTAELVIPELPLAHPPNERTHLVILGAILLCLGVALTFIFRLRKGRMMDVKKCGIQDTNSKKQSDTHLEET
Experimental: as §1

[3] = biological target: T3, human Fc gamma receptors I (FcγRI/CD64) (Homo sapiens, UniProt P12314); test: Human FcγR binding ELISA, FcγRI/CD64 (Example 8); conditions: ELISA binding affinity
T3 construct: purchased R&D systems 1257-FC-050
T3 sequence (P12314 16-374): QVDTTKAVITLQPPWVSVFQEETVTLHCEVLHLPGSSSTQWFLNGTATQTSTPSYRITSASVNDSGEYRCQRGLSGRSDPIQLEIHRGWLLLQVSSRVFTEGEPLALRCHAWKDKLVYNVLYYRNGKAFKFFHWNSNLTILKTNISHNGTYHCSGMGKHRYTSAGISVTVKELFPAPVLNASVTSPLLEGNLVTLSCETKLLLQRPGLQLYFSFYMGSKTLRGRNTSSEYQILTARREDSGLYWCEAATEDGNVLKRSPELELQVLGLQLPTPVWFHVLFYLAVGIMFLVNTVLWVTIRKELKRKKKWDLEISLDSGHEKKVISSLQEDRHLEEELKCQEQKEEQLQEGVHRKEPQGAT
Experimental: (§2) The interaction of the unmodified and of conjugated antibodies with human Fc gamma receptors I (FcγRI/CD64), with human Fc gamma receptors IIa (FcγRIIa/CD32a), with inhibitory human Fc gamma receptors IIb (FcγRIIb/CD32b), and with human Fc gamma receptors III FcγRIIIa/CD16 were measured by ELISA.
(§3) Briefly, Corning high-binding half-area plates (Fisher Scientific, Reinach, Switzerland) were coated overnight at 4° C. with 25 μl of unmodified and of conjugated anti-PD1 antibodies at 2.5 μg/ml in PBS. […] Plates surfaces were blocked with 25 μl of PBS-0.02% Tween20-1% BSA at 37° C. during 1 h. […] Twenty-five microliters of a 1/500 HRP-anti-His antibody in PBS—0.02% Tween20—0.1% BSA (R&D systems, anti-HIS—HRP Ab, #MAB050H) were added to each well and plates were incubated at Room Temperature during 1 h. […] ELISA signal was then measured at 450 nm on an EnSpire plate reader from Perkin Elmer (Schwerzenbach, Switzerland).

[4] = biological target: T4, human Fc gamma receptors IIa (FcγRIIa/CD32a) (Homo sapiens, UniProt P12318); test: Human FcγR binding ELISA, FcγRIIa/CD32a (Example 8); conditions: ELISA binding affinity
T4 construct: purchased R&D systems 9595-CD-050
T4 sequence (P12318 34-317): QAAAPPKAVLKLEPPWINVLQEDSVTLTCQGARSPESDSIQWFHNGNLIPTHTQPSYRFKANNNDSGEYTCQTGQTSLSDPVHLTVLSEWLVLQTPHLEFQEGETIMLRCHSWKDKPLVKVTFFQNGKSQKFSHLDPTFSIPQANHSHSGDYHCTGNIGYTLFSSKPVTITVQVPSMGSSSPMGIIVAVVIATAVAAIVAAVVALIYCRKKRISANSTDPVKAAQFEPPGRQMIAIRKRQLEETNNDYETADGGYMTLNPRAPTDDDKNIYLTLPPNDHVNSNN
Experimental: as §2, §3

[5] = biological target: T5, human Fc gamma receptors IIb (FcγRIIb/CD32b) (Homo sapiens, UniProt P31994); test: Human FcγR binding ELISA, FcγRIIb/CD32b (Example 8); conditions: ELISA binding affinity
T5 construct: purchased R&D systems AVI1875-050
T5 sequence (P31994 43-310): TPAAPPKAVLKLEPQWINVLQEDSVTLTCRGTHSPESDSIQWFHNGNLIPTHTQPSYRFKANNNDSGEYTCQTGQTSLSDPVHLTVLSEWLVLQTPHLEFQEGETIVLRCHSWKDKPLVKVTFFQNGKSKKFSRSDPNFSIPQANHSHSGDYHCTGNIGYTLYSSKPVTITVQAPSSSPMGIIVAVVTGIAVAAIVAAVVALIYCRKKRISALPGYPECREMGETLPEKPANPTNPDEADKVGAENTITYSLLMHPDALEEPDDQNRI
Experimental: as §2, §3

[6] = biological target: T6, human Fc gamma receptors III FcγRIIIa/CD16 (Homo sapiens, UniProt P08637); test: Human FcγR binding ELISA, FcγRIIIa/CD16 (Example 8); conditions: ELISA binding affinity
T6 construct: purchased R&D systems 4325-FC-050
T6 sequence (P08637 17-254): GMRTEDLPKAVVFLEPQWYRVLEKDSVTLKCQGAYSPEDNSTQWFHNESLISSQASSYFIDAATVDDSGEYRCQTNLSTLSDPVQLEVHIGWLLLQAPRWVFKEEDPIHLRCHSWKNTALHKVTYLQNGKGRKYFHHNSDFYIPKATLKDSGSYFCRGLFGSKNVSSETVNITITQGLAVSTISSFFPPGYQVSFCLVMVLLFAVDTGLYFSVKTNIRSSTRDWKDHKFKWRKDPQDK
Experimental: as §2, §3

[7] = biological target: T7, human neonatal Fc receptor (FcRn) (Homo sapiens, UniProt P55899); test: Human FcRn binding AlphaLISA at pH 6 (Example 9)
T7 construct: purchased Perkin Elmer AL3095C
Experimental: The interaction of the unmodified and of conjugated anti-PD1 antibodies with the human neonatal Fc receptor (FcRn) at pH 6 was measured using the AlphaLISA® Human FcRn Binding Kit (AL3095C) from Perkin Elmer (Schwerzenbach, Switzerland). […] When reference IgG binds to FcRn, donor and acceptor beads come into proximity enabling the transfer of singlet oxygen that trigger a cascade of energy transfer reactions in the acceptor beads, resulting in a sharp peak of light emission at 615 nm. Addition of a free IgG antibodies into the AlphaLISA® mixture creates a competition for the binding of FcRn to the reference antibody resulting in a loss of signal.
After 90 min at 23° C. in the dark, AlphaLISA® signal was measured on an EnSpire plate reader (Excitation at 680 nm, Emission at 615 nm) from Perkin Elmer (Schwerzenbach, Switzerland).

[8] = test system: NK92 cells; test: IFN gamma secretion assay in NK92 cells (Example 10); format: cell-based, human; conditions: IFNγ secretion, 1 ng/ml IL-12
Experimental: The IFNγ-secretion stimulating activity of the unconjugated IL-18 variants and corresponding IL-18 immunocytokines was evaluated on NK92 cell line. The NK cell line NK-92 derived from a patient with lymphoma (ATCC, Cat #CRL-2407) was cultured in aMEM medium supplemented with 12.5% FCS, 12.5% horse serum (HS), 50 uM B-mercaptoEthanol, and 2 ng/ml of recombinant Human Interleukin-2 (IL-2).
On the day of experiment, cells were harvested and washed with aMEM medium without IL-2 and resuspended in medium (w/o IL-2) containing 1 ng/ml of recombinant human Interleukin-12 (SinoBiologicals, Cat #CT011-H08H). After counting, cells were seeded at 100 000 cells/well in a 384 well titer plate and incubated at 37° C./5% CO2. Sixteen 4-fold serial dilutions of IL-18 analytes were prepared in aMEM medium—1 ng/ml IL-12 and were added to the NK-92 cells. […]
(§4) After 16-20 h incubation at 37° C./5% CO2, 5 μl of supernatant were carefully transferred to a 384 microwells OPTIPlate (Perkin Elmer; Cat #6007270) and Interferon-gamma (IFNγ) levels measured using the Human IFNγ AlphaLISA Assay Kit (Perkin Elmer, Cat #AL217C). […] AlphaLisa signal was then measured on an Enspire plate reader (Perkin Elmer) using 680 and 615 nm as excitation and emission wavelengths respectively. Half maximal effective concentration (EC50) was calculated based on a variable slope, four parameter analysis using GraphPad PRISM software.

[9] = test system: parental PD-1 negative KG-1 cells; test: IFN gamma secretion assay in parental PD-1 negative KG-1 cells (Example 11); format: cell-based, human; conditions: IFNγ secretion
Experimental: (§5) The KG-1 cell line was used to generate a PD-1 expressing cell line and furthermore, to measure IFNγ release upon incubation with IL-18 variants and corresponding IL-18 immunocytokines.
(§6) IFNγ release was assessed in PD-1 positive (transduced) KG-1 cells, as well as in the parental PD-1 negative cells. 0.5×10^5 cells were seeded into a 96-well U-bottom plate in culture media (RPMI, 10% FBS, 1% L-Glutamine) and stimulated with IL-18 variants/ICs for 20-24 h. The test items were diluted to 100 nM in culture medium, followed by 7 10-fold serial dilutions. The lowest concentration assessed was […]. After incubation, IFNγ release was measured using the LEGENDplex custom human mix and match KIT (Biolegend LEGENDplex™ Human IFN-γ Capture Bead B5, 13X #740942, LEGENDplex™ HU Essential Immune Response Panel Detection Abs, #740931, LEGENDplex™ Buffer Set A #740368). To this end, cell culture supernatant was collected and diluted 1:1 with Assay Buffer. Fluorescence measurements were done with a Quanteon Flow Cytometer from Acea Biosciences. For analysis, MFI values (median fluorescence intensity) were exported and plotted against concentrations used. The EC50 values (half maximal effective concentration) were calculated based on a variable slope and four parameter analysis using GraphPad PRISM software version 9.

[10] = test system: PD-1 positive (transduced) KG-1 cells; test: IFN gamma secretion assay in PD-1 transduced KG-1 cells (Example 11); format: cell-based, human
Experimental: as §5
PD-1 expressing cell line generation: Briefly, KG-1 cells were transduced using lentiviral particles carrying the human PD-1 gene (PDCD1 NM_005018; Origene, CAT #: RC210364L3V) at a MOI (Multiplicity of Infection) of 30. Spinfection was performed at 1260 g during 90 min at 37° C. in the presence of 5 μg/ml of Polybrene and 10 mM of HEPES in complete culture media (RPMI, 10% FBS, 1% L-Glutamine). Five days after transduction, puromycin at a final concentration of 1 ug/ml was added to select for PD-1 positive cells. For culture maintenance, puromycin concentration was decreased to 0.5 μg/ml. Stable and homogenous expression of PD-1 was verified by surface staining (BD Pharmingen, #557860).
as §6

[11] = biological target: T8, human IL-18 Binding Protein (IL-18BP) (Homo sapiens, UniProt O95998); test: IL-18 Binding Protein alphaLISA assay (Example 12); conditions: human IL-18BP
T8 sequence (O95998 31-194): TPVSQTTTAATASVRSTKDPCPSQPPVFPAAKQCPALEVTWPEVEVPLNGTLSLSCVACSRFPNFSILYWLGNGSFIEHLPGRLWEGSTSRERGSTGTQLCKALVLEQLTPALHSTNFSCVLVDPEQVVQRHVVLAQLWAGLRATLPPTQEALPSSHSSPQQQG
Experimental: Wild type or modified IL-18 polypeptides samples were diluted at 5.6 μM in a solution of 1× alphaLISA Immunoassay Buffer provided in the alphaLISA IFNγ Detection kit and were diluted applying 3-fold serial dilutions down to […] in 384 deep well plates. A solution of 10 ng/ml of human IL-18BP-His was prepared with 1×alphaLISA Immunoassay Buffer. IL-18/IL-18BP complex formation was performed incubating 30 μl of IL-18BP solution to IL-18 sample titrations for 1 h at 20° C. IL-18BP standard was prediluted from stock solution supplied in alphaLISA IFNγ Detection kit at 100 ng/ml with 1×alphaLISA Buffer and titration prepared from applying 2-fold serial dilutions. The following solutions were prepared: a 50 μg/ml solution of anti-IL-18BP alphaLISA Acceptor beads, a 5 nM solution of biotinylated anti-IL18BP antibody and a 80 μg/ml light-protected solution of Streptavidin Donor beads in 1×alphaLISA Immunoassay Buffer. […]
5 μl of Biotinylated anti-IL-18BP antibody were added, followed by a short centrifugation step at 150 g, and incubated for 60 minutes at 20° C. under shaking at 750 rpm. […] AlphaLisa signal was then measured on an Enspire plate reader (Perkin Elmer) using 680 and 615 nm as excitation and emission wavelengths respectively. […]

[12] = test system: NK92 cells; test: Cellular IL-18 Binding Protein resistance assay in NK92 cells (Example 13); format: cell-based, human; conditions: IL-18BP-mediated inhibition of IFNγ secretion, IL-18 analyte 1 nM
Experimental: The NK cell line NK-92 derived from a patient with lymphoma (ATCC, Cat #CR^L-2407) was cultured in αMEM medium supplemented with 20% FCS-Glutamax, 25 μM B-mercaptoethanol, and 100 IU/ml of recombinant Human Interleukin-2 (IL-2). On the day of experiment, cells were harvested and washed with αMEM medium without IL-2. After counting, cells were seeded at 100 000 cells/well in a 384 well titer plate and incubated at 37° C./5% CO2. Sixteen 2-fold serial dilutions of Fc fused human IL-18 binding protein isoform a (IL-18BPa; R&D systems, Cat #119-BP) were prepared in αMEM medium—1 ng/ml IL-12 containing 2 nM of each IL-18 variants and were added to the NK-92 cells. Final IL-18 analytes concentration was 1 nM and final IL-18BPa concentrations ranged from to 566 nM down to 17 pM.
as §4, with “OPTIplate” for “OPTIPlate”, “inhibitory” for “effective”, “(IC50)” for “(EC50)”

T1 sequence (Q15116 25-288): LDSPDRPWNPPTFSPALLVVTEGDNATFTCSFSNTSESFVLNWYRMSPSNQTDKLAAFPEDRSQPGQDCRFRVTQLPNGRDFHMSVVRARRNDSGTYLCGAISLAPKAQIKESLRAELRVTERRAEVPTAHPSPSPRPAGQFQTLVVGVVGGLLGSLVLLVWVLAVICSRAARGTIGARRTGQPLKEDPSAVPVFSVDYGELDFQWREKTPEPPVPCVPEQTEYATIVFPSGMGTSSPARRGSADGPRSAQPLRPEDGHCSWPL

Kd [1]	Kd [2]	Kd [3]	Kd [4]	Kd [5]	Kd [6]	Kd [7]	EC50 [8]	EC50 ([10]; IFNγ secretion, PD-1 transduced KG-1)	PD-1^neg/PD-1^pos EC50 ratio ([10]; KG-1 cells)	Kd [11]	IC50 [12]	Substance	EC50 [9]
> 100 nM	0.443 nM	9.17 nM	1370 nM	> 10000 nM	356 nM	6.4 nM						Atezolizumab/Tecentriq	
							0.103 nM	0.135 nM	1.2	0.103 nM	0.282 nM	SEQ ID NO: 31: IL-18 polypeptide: C38A, C76A, C127A	0.148 nM

Reference: US20250186597A1, “TARGETED IMMUNE ACTIVATION WITH IL-18 IMMUNOCYTOKINES” (BRIGHT PEAK THERAPEUTICS AG, priority 2023, published 2025)
